Measurements from the supplement of paper PMC10724198.
± gives the standard deviation of the averaged measurements.

Test system: Saccharomyces cerevisiae
Assay: protein stability index of tFT-peptide fusion (C-terminal peptide) (PSI (0-1 scale)); higher = more stable (slower turnover)
Conditions: genetic background: das1 deletion; temperature: 30 C
Procedure: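 MPS profiling in S. cerevisiae of the yeast C-terminome library: the last 12 aa of each annotated ORF are fused to the C-terminus of a sfGFP-mCherry timer, after a GGGS linker. Cells are FACS-sorted into 8 mCherry/sfGFP bins and deep-sequenced. PSI runs from 0 (unstable) to 1 (stable); wild type and das1Δ backgrounds, two technical replicates each.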

Point of comparison: KKKFYKQYHFDL [PDR8 C-terminal 12 aa], protein stability index 0.715 ± 0.016. Against it:
- IKNRLNGLKYRL [YML020W C-terminal 12 aa] — higher, 0.751 ± 0.0083
- ILAENEIEVSRG [FET5 C-terminal 12 aa] — within error, 0.7042 ± 0.00013
- ILERRLNEDHDC [KXD1 C-terminal 12 aa] — within error, 0.696 ± 0.025
- ILILFTSINQRG [YOR366W C-terminal 12 aa] — lower, 0.589 ± 0.037
- ILMNEFAFNPKV [LEU3 C-terminal 12 aa] — within error, 0.728 ± 0.027
- ILTQGGHIIKKK [MNL2 C-terminal 12 aa] — the same, 0.715 ± 0.017
- IMDKLRAMKNRM [GLO2 C-terminal 12 aa] — within error, 0.689 ± 0.053
- IMSTASAQFVGN [YIR018C-A C-terminal 12 aa] — lower, 0.687 ± 0.011
- INKTLAWMDEGL [ERG26 C-terminal 12 aa] — within error, 0.694 ± 0.013
- INPMPANFAELS [FAL1 C-terminal 12 aa] — within error, 0.721 ± 0.017
- IPSIGKPKTIKI [BUD17 C-terminal 12 aa] — lower, 0.672 ± 0.015
- IPTSFFFFNSIV [YKL123W C-terminal 12 aa] — within error, 0.734 ± 0.034
- IQFFSQCTSCTV [YLR286W-A C-terminal 12 aa] — lower, 0.507 ± 0.0085
- IQYYEEILRRGL [SPP1 C-terminal 12 aa] — within error, 0.683 ± 0.024
- IRCVFMFRTNAK [YLR296W C-terminal 12 aa] — lower, 0.578 ± 0.03
- IRDAKFCDKHED [BOR1 C-terminal 12 aa] — lower, 0.6971 ± 0.0014
- IRLKRRDFMKNL [RRT12 C-terminal 12 aa] — lower, 0.689 ± 0.0069
- ISKKYYSRYDKK [OM14 C-terminal 12 aa] — within error, 0.683 ± 0.037
- ISTLKAIYNKMD [PEX9 C-terminal 12 aa] — lower, 0.69065 ± 0.0004
- ISWLEKMKKFFH [MAM33 C-terminal 12 aa] — within error, 0.7163 ± 0.0048
- ITLAELDVGDSE [CAF130 C-terminal 12 aa] — within error, 0.703 ± 0.03
- ITNATFREIDDA [SEC12 C-terminal 12 aa] — within error, 0.692 ± 0.0098
- ITNFFRVLVRLV [YER067C-A C-terminal 12 aa] — lower, 0.526 ± 0.024
- IVCGDGSIHWFQ [FAU1 C-terminal 12 aa] — within error, 0.735 ± 0.0094
- IVFTSVGAFNIL [YMR172C-A C-terminal 12 aa] — within error, 0.717 ± 0.016
- IVNIKILRRNSR [LDB16 C-terminal 12 aa] — higher, 0.796 ± 0.014
- IVSFLSDETKSP [ECM18 C-terminal 12 aa] — within error, 0.7282 ± 0.0009
- IWLVYKLYCFIF [CST26 C-terminal 12 aa] — lower, 0.3724 ± 0.0025
- IYVCGRLTNDRK [YIL171W-A C-terminal 12 aa] — lower, 0.6871 ± 0.0066
- KAGEMVLKSLRR [SCP160 C-terminal 12 aa] — lower, 0.67 ± 0.028
- KAKSRREGTTRT [STU2 C-terminal 12 aa] — within error, 0.7121 ± 0.0033
- KCEEVNDGLRWK [EHD3 C-terminal 12 aa] — within error, 0.6964 ± 0.0049
- KCLYVQVITKSN [ECM8 C-terminal 12 aa] — lower, 0.5487 ± 0.0052
- KDNTVDIYDVNG [TGS1 C-terminal 12 aa] — within error, 0.687 ± 0.023
- KEYISDQRKKRK [LOA1 C-terminal 12 aa] — lower, 0.6823 ± 0.00078
- KFLRYNPLEKRD [RPB10 C-terminal 12 aa] — within error, 0.693 ± 0.012
- KFNLVTQRENSL [YGR025W C-terminal 12 aa] — within error, 0.697 ± 0.021
- KGGEDGSLVSSN [NHP10 C-terminal 12 aa] — within error, 0.688 ± 0.014
- KGGLEGWVKSQL [LYS4 C-terminal 12 aa] — higher, 0.808 ± 0.018
- KGRALENLPDES [SSM4 C-terminal 12 aa] — lower, 0.675 ± 0.016
- KICEVAARQKWI [AAN1 C-terminal 12 aa] — lower, 0.6888 ± 0.0048
- KIEVSSQESWGN [HSP26 C-terminal 12 aa] — lower, 0.68 ± 0.0024
- KINYDAIDGLFR [BRF1 C-terminal 12 aa] — within error, 0.71 ± 0.013
- KKGLLHKLKKKL [IST2 C-terminal 12 aa] — within error, 0.7257 ± 0.0041
- KKGRQERKLANR [PPZ2 C-terminal 12 aa] — within error, 0.689 ± 0.026
- KKKANIPKAKSA [HUT1 C-terminal 12 aa] — within error, 0.706 ± 0.0094
- KKKFSFFGKRKK [PAM1 C-terminal 12 aa] — within error, 0.684 ± 0.017
- KKKNKNKGKKKR [SRP21 C-terminal 12 aa] — lower, 0.6857 ± 0.006
- KKKSRMFSFRKS [UBP13 C-terminal 12 aa] — within error, 0.702 ± 0.011
- KKNDTPKPKPLK [SFC1 C-terminal 12 aa] — within error, 0.7063 ± 0.00074
- KKNRSGLRHSES [SQS1 C-terminal 12 aa] — lower, 0.683 ± 0.011
- KKPFDKKPKFNI [YKU70 C-terminal 12 aa] — within error, 0.727 ± 0.024
- KLCTGIVWAPRV [YAR070C C-terminal 12 aa] — lower, 0.681 ± 0.0084
- KLDIPVSFLLAA [YBL053W C-terminal 12 aa] — lower, 0.443 ± 0.0065
- KLKFLQNTYNND [CCE1 C-terminal 12 aa] — lower, 0.674 ± 0.015
- KLLGIFPNLSNF [YLL054C C-terminal 12 aa] — within error, 0.70477 ± 0.00046
- KLYNYLLSIEVY [YLR123C C-terminal 12 aa] — lower, 0.144 ± 0.013
- KMDKRAKNSDSA [RPL8A C-terminal 12 aa] — lower, 0.691 ± 0.0034
- KMLDALKNERKK [HTL1 C-terminal 12 aa] — within error, 0.716 ± 0.015
- KMPLVPTHYYKQ [GCV1 C-terminal 12 aa] — within error, 0.706 ± 0.0089
- KNEQDEDKWDDF [GCS1 C-terminal 12 aa] — within error, 0.729 ± 0.031
- KNIKRDLRNVRI [TAX4 C-terminal 12 aa] — within error, 0.7 ± 0.045
- KNRYLHLLEQHK [BET4 C-terminal 12 aa] — within error, 0.692 ± 0.018
- KPLLTSIFPNHK [YBL012C C-terminal 12 aa] — within error, 0.718 ± 0.064
- KPLYYRIYRFFC [MMP1 C-terminal 12 aa] — higher, 0.764 ± 0.013
- KQIAKQSSKMMK [VMR1 C-terminal 12 aa] — lower, 0.686 ± 0.0041
- KQKKQQAQPLRK [VRG4 C-terminal 12 aa] — within error, 0.704 ± 0.012
- KQLQEGNRRHKL [DCI1 C-terminal 12 aa] — higher, 0.768 ± 0.0084
- KSEEAKKRTSLY [YBR124W C-terminal 12 aa] — within error, 0.694 ± 0.013
- KSLFSIIDDLQS [MSH6 C-terminal 12 aa] — within error, 0.731 ± 0.0073
- KTFWDKFWNVVA [CAN1 C-terminal 12 aa] — within error, 0.735 ± 0.03
- KTGKSSVIDLQR [GCN2 C-terminal 12 aa] — within error, 0.712 ± 0.031
- KTRWQRVWDVLS [ALP1 C-terminal 12 aa] — within error, 0.7259 ± 0.0053
- KTSSKGNARTLL [FMP49 C-terminal 12 aa] — within error, 0.698 ± 0.025
- KVETVLNKMFEK [REC114 C-terminal 12 aa] — within error, 0.701 ± 0.015
- KVIRGKGFKLPK [ERD2 C-terminal 12 aa] — lower, 0.675 ± 0.0093
- KVLACYEEIDDY [UBC11 C-terminal 12 aa] — lower, 0.679 ± 0.0098
- KYEPTQEIIEDI [ITR1 C-terminal 12 aa] — within error, 0.693 ± 0.036
- KYNNYFKIPPKY [BI3 C-terminal 12 aa] — within error, 0.688 ± 0.022
- LAKLINKSCVFK [YKL069W C-terminal 12 aa] — within error, 0.7 ± 0.023
- LARGGVASFTVK [RNH70 C-terminal 12 aa] — within error, 0.703 ± 0.0078
